Laboratory results reported in patent publication US20220143136A1, “USE OF ANNEXINS IN PREVENTING AND TREATING MUSCLE MEMBRANE INJURY” (NORTHWESTERN UNIVERSITY, priority 2018, published 2022).

Legend:
[1] = system: tibialis anterior muscles of wildtype mice; assay: Cardiotoxin injection and histology 7 days post injury; format: in vivo, mouse; details: 1 mg/kg retro-orbital 2 hours before cardiotoxin, vs BSA control
Description: Cardiotoxin injection and histology. […] Two hours post injection mice were sedated for a second time. While sedated the tibialis anterior muscles were injected along the midline with 10 μm cardiotoxin in 20 ul of PBS as described above. Seven days post injection, the muscle was isolated and frozen. Muscle sections were acquired every 100 μm from muscle tendon into the mid belly, fixed and stained with hematoxylin and eosin. Imaging was performed using a Zeiss Axio Observer A1 microscope (Zeiss, Oberkochen, Germany), using a 10× objective. ZEN software (Zeiss, Jena, Germany) was used for acquiring tiled images. Percent injury area was calculated as the average injured area (containing internal myonuclei) divided by total muscle area of 3 sections per muscle. One muscle from each group was excluded due to technical error in tissue processing. Damage area was measured using FIJI (NIH).

[2] = system: mdx/hLTBP4 dystrophic muscle; assay: Anti-HIS immunofluorescence localization after systemic injection, mdx/hLTBP4; format: in vivo, mouse; details: 6 hours post systemic injection, vs PBS
Description: (§1) Immunofluorescence microscopy. Sections (10 μm thick) from the center of frozen-embedded muscles were collected on the cryostat (chamber, −20° C.; sample, −15° C.; catalog number CM1950; Leica, Wetzlar, Germany) for immunostaining. Tissues were fixed with 4% paraformaldehyde for 10 minutes on ice. Block and permeabilization were with 0.1% Triton (catalog number X-100; Sigma-Aldrich), 10% fetal bovine serum, and PBS for 60 minutes. For dystrophin detection, anti-dystrophin (ab15277; Abcam, Cambridge, Mass.) was used at a dilution of 1:100 overnight at 4° C. Sections were PBS rinsed, incubated with secondary antibody goat anti rabbit (A11008, Invitrogen) for 1 hour, PBS rinsed, and mounted in vectashield with DAPI (H-1200, Vector Laboratories). Imaging was performed using a Zeiss Axio Observer A1 microscope (Zeiss, Oberkochen, Germany), using a 10× objective. ZEN software (Zeiss, Jena, Germany) was used for acquiring images. Fluorescence quantitation and muscle area were performed using FIJI (NIH). Surface plots were created in FIJI (NIH). Fluorescence volume was quantified using Imaris Software v9.1.2.
Immunofluorescence microscopy. Mice were systemically injected with recombinant annexin A6 with a C-terminal HIS tag (R&D). Muscle was harvested and flash frozen. […]

wildtype myofibers = assay: Ca2+-dependency of recombinant annexin A6 protection, FM 1-43 uptake after laser injury; format: cell-based, mouse; details: 20 μg/ml rANXA6 pretreatment, 0 mM Ca2+ + EGTA compared with 1 mM Ca2+
Description: Multiphoton laser injury and imaging. Fibers were subjected to laser-induced damage at room temperature using the Nikon A1R-MP multiphoton microscope. Imaging was performed using a 25×1.1 NA objective directed by the NIS-Elements AR imaging software. Green fluorescence protein (GFP) and FM 4-64 were excited using a 920 nm wavelength laser and emission wavelengths of 575 nm and 629 nm were collected respectively. To induce laser damage on isolated myofibers, a diffraction limited spot (diameter approximately 410 nm) was created on the lateral membrane of the myofiber using a 920 nm wavelength laser at 10-15% laser power for 1 s. Time lapse images were collected as follows: one image was collected prior to damage, one image upon damage, then every 8 seconds for 80 seconds (10 images) followed by every 30 seconds for 5 minutes (10 images). At the end of the time lapsed image series, z-stack images were collected at 250 nm intervals through the damaged site on the myofiber directed by the NIS-Elements AR imaging software. The multiphoton was used to acquire data presented in FIG. 5, FIG. 10D and FIG. 19.
For recombinant protein calcium studies, myofibers were isolated from wildtype mice as described above. […] Images were acquired and quantitated as described above. FM 1-43 fluorescence over time was measured using FIJI and plotted overtime as F/F0.

[3] = system: tibialis anterior muscles of wildtype mice; assay: Cardiotoxin injury, intramuscular recombinant annexin A6, Evan's blue dye uptake; format: in vivo, mouse; details: for decrease in Evan's blue dye uptake (fluorescence over muscle area): 25 μg/ml intramuscular 2 hours before cardiotoxin, harvested 3 hours post injury, vs control muscle; for cardiotoxin-induced muscle damage, dye uptake by gross imaging: intramuscular pretreatment vs control
Description: Cardiotoxin Injury and analysis. […] Additionally, mice were injected intraperitoneally with Evans' blue dye at 5 μl/g body weight (E-2129; Sigma-Aldrich, St. Louis, Mo.) dissolved in phosphate-buffered saline at 10 mg/mL. […] Cardiotoxin injury was performed injecting 20 μl of a 10 μM cardiotoxin (discontinued, Sigma-Aldrich) solution in PBS in tibialis muscles in sedated animals (3% isoflurane, 0.8 l/min O2) 2 hours post pretreatment. Cardiotoxin was released down the midline of the muscle to induce a homogenous area of injury at the center of the muscle. 3 hours post cardiotoxin injection muscle was harvested and frozen in liquid nitrogen.
as §1
Cardiotoxin Injury and analysis. […] Additionally, mice were injected with Evans' blue dye at 5 μl/g body weight (E-2129; Sigma-Aldrich, St. Louis, Mo.) dissolved in phosphate-buffered saline at 10 mg/mL cardiotoxin injury was performed injecting 20 μl of a 10 μM cardiotoxin solution in PBS in tibialis anterior or gastroc/soleus muscles in sedated animals (3% isoflurane, 0.8 l/min O2) 2 hours post pretreatment. Cardiotoxin was released down the midline of the muscle to induce a homogenous area of injury at the center of the muscle. 3 hours post cardiotoxin injection muscle was harvested.
Evans blue dye uptake. […] Fluorescence quantitation, surface plots, and muscle area were performed using FIJI (NIH). For whole tissue dye quantification, whole tissue was dissected, finely minced, weighed, and incubated at 55° C. in 1 mL of formamide for 2 hours. Spectrophotometric absorbance was measured at 620 nm.

B1: recombinant annexin A6: recombinant human annexin A6 protein with C-terminal HIS tag (5186-A6-050, R&D systems); mouse protein from Northwestern core in one cohort (protein, UniProt P08133 2-673, looked up)
Annexin A6: AKPAQGAKYRGSIHDFPGFDPNQDAEALYTAMKGFGSDKEAILDIITSRSNRQRQEVCQSYKSLYGKDLIADLKYELTGKFERLIVGLMRPPAYCDAKEIKDAISGIGTDEKCLIEILASRTNEQMHQLVAAYKDAYERDLEADIIGDTSGHFQKMLVVLLQGTREEDDVVSEDLVQQDVQDLYEAGELKWGTDEAQFIYILGNRSKQHLRLVFDEYLKTTGKPIEASIRGELSGDFEKLMLAVVKCIRSTPEYFAERLFKAMKGLGTRDNTLIRIMVSRSELDMLDIREIFRTKYEKSLYSMIKNDTSGEYKKTLLKLSGGDDDAAGQFFPEAAQVAYQMWELSAVARVELKGTVRPANDFNPDADAKALRKAMKGLGTDEDTIIDIITHRSNVQRQQIRQTFKSHFGRDLMTDLKSEISGDLARLILGLMMPPAHYDAKQLKKAMEGAGTDEKALIEILATRTNAEIRAINEAYKEDYHKSLEDALSSDTSGHFRRILISLATGHREEGGENLDQAREDAQVAAEILEIADTPSGDKTSLETRFMTILCTRSYPHLRRVFQEFIKMTNYDVEHTIKKEMSGDVRDAFVAIVQSVKNKPLFFADKLYKSMKGAGTDEKTLTRIMVSRSEIDLLNIRREFIEKYDKSLHQAIEGDTSGDFLKALLALCGGED
modifications: C-terminal His tag
notes: recombinant human annexin A6 protein with C-terminal HIS tag (5186-A6-050, R&D systems); mouse protein from Northwestern core in one cohort
- percentage of injured muscle (internal myonuclei), histology [1]: reduced
- percentage of injured muscle (internal myonuclei), histology ([1]; listed as rANXA6): reduction
- anti-HIS staining at the sarcolemma / plasma membrane ([2]; listed as rANXA6): localized to the plasma membrane
- anti-HIS staining at the sarcolemma / plasma membrane ([2]; listed as recombinant annexin A6-HIS): presence of recombinant annexin A6-HIS at the sarcolemma
- FM 1-43 fluorescence accumulation at the lesion over time (F/F0) (wildtype myofibers): significantly increased
- FM 1-43 fluorescence accumulation at the lesion over time (F/F0) (wildtype myofibers; listed as rANXA6): significantly reduced at 1 mM
- decrease in Evan's blue dye uptake (fluorescence over muscle area) [3]: 50%
- decrease in Evan's blue dye uptake (fluorescence over muscle area) ([3]; listed as rANXA6): approximately 50%
- cardiotoxin-induced muscle damage, dye uptake by gross imaging [3]: reduced
- cardiotoxin-induced muscle damage, dye uptake by gross imaging ([3]; listed as rANXA6): decreased
